Where a SMILES comes first, the peptide text is derived from it. Bridges are numbered along the chain shown (N, C = ends).

The data set is described as follows: circular dichroism. The note with it: 10 mM K phosphate, 100 mM KF; pH 7; 20 °C; 150 uM. On the technique in general: Circular dichroism is the unequal absorption of left and right circularly polarised light.
As for `CC[C@H](C)[C@@H]1NC(=O)[C@H](Cc2c[nH]cn2)NC(=O)[C@@H](NC(=O)[C@H](CCCNC(=N)N)NC(=O)[C@H](CC(C)C)NC(=O)[C@H](CCSC)NC(=O)[C@H](CC(N)=O)NC(=O)[C@H](C)NC(=O)[C@H](CCCCN)NC(=O)[C@H](CO)NC(=O)[C@H](CCCNC(=N)N)NC(=O)[C@H](CC(C)C)NC(=O)[C@@H]2CC(=O)NCCCC[C@H](NC(=O)[C@H](CCCCN)NC(=O)[C@H](CC(C)C)NC(C)=O)C(=O)N[C@@H](CCC(=O)O)C(=O)N[C@@H]([C@@H](C)CC)C(=O)N[C@@H](Cc3ccc(O)cc3)C(=O)N2)CCCCNC(=O)C[C@@H](C(=O)N[C@@H](CC(C)C)C(N)=O)NC(=O)[C@H](C)NC1=O` (Ac-LKKEIYDLRSKANMLRKHIADL-NH2; lactam 3-7, 17-21), the helicity was 0.57 frac. In the case of `CC[C@H](C)[C@@H]1NC(=O)[C@H](Cc2c[nH]cn2)NC(=O)[C@@H](NC(=O)[C@H](CCCNC(=N)N)NC(=O)[C@H](CC(C)C)NC(=O)[C@@H]2CC(=O)NCCCC[C@H](NC(=O)[C@H](CCCNC(=N)N)NC(=O)[C@H](CC(C)C)NC(=O)[C@@H]3CC(=O)NCCCC[C@H](NC(=O)[C@H](CCCCN)NC(=O)[C@H](CC(C)C)NC(C)=O)C(=O)N[C@@H](CCC(=O)O)C(=O)N[C@@H]([C@@H](C)CC)C(=O)N[C@@H](Cc4ccc(O)cc4)C(=O)N3)C(=O)N[C@@H](CCCCN)C(=O)N[C@@H](C)C(=O)N[C@@H](CC(N)=O)C(=O)N2)CCCCNC(=O)C[C@@H](C(=O)N[C@@H](CC(C)C)C(N)=O)NC(=O)[C@H](C)NC1=O` (Ac-LKKEIYDLRKKANDLRKHIADL-NH2; lactam 3-7, 10-14, 17-21) it was 0.43 frac. For the compound `CC[C@H](C)[C@H](NC(=O)[C@H](Cc1c[nH]cn1)NC(=O)[C@@H]1CC(=O)NCCCC[C@H](NC(=O)[C@H](Cc2ccccc2)NC(=O)[C@H](CCCCN)NC(=O)[C@H](CO)NC(=O)[C@H](CCCNC(=N)N)NC(=O)[C@H](CC(C)C)NC(=O)[C@@H]2CC(=O)NCCCC[C@H](NC(=O)[C@H](CCCCN)NC(=O)[C@H](CC(C)C)NC(C)=O)C(=O)N[C@@H](CCC(=O)O)C(=O)N[C@@H]([C@@H](C)CC)C(=O)N[C@@H](Cc3ccc(O)cc3)C(=O)N2)C(=O)N[C@@H](CCSC)C(=O)N[C@@H](CC(C)C)C(=O)N[C@@H](CCCNC(=N)N)C(=O)N1)C(=O)N[C@@H](C)C(=O)N[C@@H](CCC(N)=O)C(=O)N[C@@H](CC(C)C)C(N)=O` (Ac-LKKEIYDLRSKFKMLRDHIAQL-NH2; lactam 3-7, 13-17), the helicity is 0.37 frac. In the case of `CC[C@H](C)[C@H](NC(C)=O)C(=O)N[C@H]1CCCCNC(=O)C[C@@H](C(=O)N[C@@H](CCCCN)C(=O)N[C@@H](C)C(=O)N[C@H]2CCCCNC(=O)C[C@@H](C(=O)N[C@@H](Cc3c[nH]cn3)C(=O)N[C@H](C(=O)N[C@@H](C)C(=O)N[C@@H](CCC(N)=O)C(=O)N[C@@H](CC(C)C)C(N)=O)[C@@H](C)CC)NC(=O)[C@H](CCCNC(=N)N)NC(=O)[C@H](CC(C)C)NC(=O)[C@H](CCSC)NC2=O)NC(=O)[C@H](CCCNC(=N)N)NC(=O)[C@H](CC(C)C)NC(=O)[C@H](CCC(=O)O)NC1=O` (Ac-IKELRDKAKMLRDHIAQL-NH2; lactam 2-6, 9-13) it was 0.35 frac; in that of `CC[C@H](C)[C@H](NC(=O)[C@H](Cc1c[nH]cn1)NC(=O)[C@@H]1CC(=O)NCCCC[C@H](NC(=O)[C@H](C)NC(=O)[C@H](CCCCN)NC(=O)[C@H](CO)NC(=O)[C@H](CCCNC(=N)N)NC(=O)[C@H](CC(C)C)NC(=O)[C@@H]2CC(=O)NCCCC[C@H](NC(=O)[C@H](CCCCN)NC(=O)[C@H](CC(C)C)NC(C)=O)C(=O)N[C@@H](CCC(=O)O)C(=O)N[C@@H]([C@@H](C)CC)C(=O)N[C@@H](Cc3ccc(O)cc3)C(=O)N2)C(=O)N[C@@H](CCSC)C(=O)N[C@@H](CC(C)C)C(=O)N[C@@H](CCCNC(=N)N)C(=O)N1)C(=O)N[C@@H](C)C(=O)N[C@@H](CCC(N)=O)C(=O)N[C@@H](CC(C)C)C(N)=O` (Ac-LKKEIYDLRSKAKMLRDHIAQL-NH2; lactam 3-7, 13-17), 0.63 frac; in that of `CC[C@H](C)[C@@H]1NC(=O)[C@H](CCC(=O)O)NC(=O)[C@@H](NC(=O)[C@H](CCCCN)NC(=O)[C@H](CC(C)C)NC(C)=O)CCCCNC(=O)C[C@@H](C(=O)N[C@@H](CC(C)C)C(=O)N[C@@H](CCCNC(=N)N)C(=O)N[C@H]2CCCCNC(=O)C[C@@H](C(=O)N[C@@H](CC(C)C)C(=O)N[C@@H](CCCNC(=N)N)C(=O)N[C@@H](CCC(=O)O)C(=O)N[C@@H](Cc3c[nH]cn3)C(N)=O)NC(=O)[C@H](CCCCN)NC(=O)[C@H](C)NC(=O)[C@H](CCCCN)NC2=O)NC(=O)[C@H](Cc2ccc(O)cc2)NC1=O` (Ac-LKKEIYDLRKKAKDLREH-NH2; lactam 3-7, 10-14), 0.39 frac. Under `CC[C@H](C)[C@H](NC(C)=O)C(=O)N[C@H]1CCCCNC(=O)C[C@@H](C(=O)N[C@@H](CCCCN)C(=O)N[C@@H](C)C(=O)N[C@@H](CC(N)=O)C(=O)N[C@@H](CCSC)C(=O)N[C@@H](CC(C)C)C(=O)N[C@@H](CCCNC(=N)N)C(=O)N[C@@H](CCC(=O)O)C(=O)N[C@@H](Cc2c[nH]cn2)C(=O)N[C@H](C(=O)N[C@@H](C)C(=O)N[C@@H](CCC(N)=O)C(=O)N[C@@H](CC(C)C)C(N)=O)[C@@H](C)CC)NC(=O)[C@H](CCCNC(=N)N)NC(=O)[C@H](CC(C)C)NC(=O)[C@H](CCC(=O)O)NC1=O` (Ac-IKELRDKANMLREHIAQL-NH2; lactam 2-6) stands 0.3 frac; under `CC[C@H](C)[C@H](NC(=O)[C@H](Cc1c[nH]cn1)NC(=O)[C@@H]1CC(=O)NCCCC[C@H](NC(=O)[C@H](C)NC(=O)[C@H](CCCCN)NC(=O)[C@H](CO)NC(=O)[C@H](CCCNC(=N)N)NC(=O)[C@H](CC(C)C)NC(=O)[C@@H]2CC(=O)NCCCC[C@H](NC(=O)[C@H](CCCNC(=N)N)NC(=O)[C@H](CC(C)C)NC(C)=O)C(=O)N[C@@H](CCC(=O)O)C(=O)N[C@@H]([C@@H](C)CC)C(=O)N[C@@H](Cc3ccc(O)cc3)C(=O)N2)C(=O)N[C@@H](CCSC)C(=O)N[C@@H](CC(C)C)C(=O)N[C@@H](CCCNC(=N)N)C(=O)N1)C(=O)N[C@@H](C)C(=O)N[C@@H](CCC(N)=O)C(=O)N[C@@H](CC(C)C)C(N)=O` (Ac-LRKEIYDLRSKAKMLRDHIAQL-NH2; lactam 3-7, 13-17), 0.34 frac; under `CC[C@H](C)[C@H](NC(C)=O)C(=O)N[C@@H](Cc1ccc(O)cc1)C(=O)N[C@@H](CCC(=O)O)C(=O)N[C@@H](CC(C)C)C(=O)N[C@@H](CCCNC(=N)N)C(=O)N[C@@H](CO)C(=O)N[C@@H](CCCCN)C(=O)N[C@@H](C)C(=O)N[C@H]1CCCCNC(=O)C[C@@H](C(=O)N[C@@H](Cc2c[nH]cn2)C(=O)N[C@H](C(=O)N[C@@H](C)C(=O)N[C@@H](CCC(N)=O)C(=O)N[C@@H](CC(C)C)C(N)=O)[C@@H](C)CC)NC(=O)[C@H](CCCNC(=N)N)NC(=O)[C@H](CC(C)C)NC(=O)[C@H](CCSC)NC1=O` (Ac-IYELRSKAKMLRDHIAQL-NH2; lactam 9-13), 0.34 frac. In the case of `CC[C@H](C)[C@H](NC(=O)[C@H](Cc1c[nH]cn1)NC(=O)[C@@H]1CC(=O)NCCCC[C@H](NC(=O)[C@H](C)NC(=O)[C@H](CC(C)C)NC(=O)[C@H](CO)NC(=O)[C@H](CCCNC(=N)N)NC(=O)[C@H](CC(C)C)NC(=O)[C@@H]2CC(=O)NCCCC[C@H](NC(=O)[C@H](CCCCN)NC(=O)[C@H](CC(C)C)NC(C)=O)C(=O)N[C@@H](CCC(=O)O)C(=O)N[C@@H]([C@@H](C)CC)C(=O)N[C@@H](Cc3ccc(O)cc3)C(=O)N2)C(=O)N[C@@H](CCSC)C(=O)N[C@@H](CC(C)C)C(=O)N[C@@H](CCCNC(=N)N)C(=O)N1)C(=O)N[C@@H](C)C(=O)N[C@@H](CCC(N)=O)C(=O)N[C@@H](CC(C)C)C(N)=O` (Ac-LKKEIYDLRSLAKMLRDHIAQL-NH2; lactam 3-7, 13-17) it was 0.34 frac. In turn, `CC[C@H](C)[C@@H]1NC(=O)[C@H](CCC(=O)O)NC(=O)[C@@H](NC(=O)[C@H](CCCCN)NC(=O)[C@H](CC(C)C)NC(C)=O)CCCCNC(=O)C[C@@H](C(=O)N[C@@H](CC(C)C)C(=O)N[C@@H](CCCNC(=N)N)C(=O)N[C@@H](CCCCN)C(=O)N[C@@H](CCCCN)C(=O)N[C@@H](C)C(=O)N[C@H]2CCCCNC(=O)C[C@@H](C(=O)N[C@@H](Cc3c[nH]cn3)C(N)=O)NC(=O)[C@H](CCCNC(=N)N)NC(=O)[C@H](CC(C)C)NC(=O)[C@H](CCSC)NC2=O)NC(=O)[C@H](Cc2ccc(O)cc2)NC1=O` (Ac-LKKEIYDLRKKAKMLRDH-NH2; lactam 3-7, 13-17) showed a helicity of 0.49 frac. In the case of `CC[C@H](C)[C@H](NC(=O)[C@H](Cc1c[nH]cn1)NC(=O)[C@@H]1CC(=O)NCCCC[C@H](NC(=O)[C@H](C)NC(=O)[C@H](CCCCN)NC(=O)[C@H](CO)NC(=O)[C@H](CCCNC(=N)N)NC(=O)[C@H](CC(C)C)NC(=O)[C@@H]2CC(=O)NCCCC[C@H](NC(=O)[C@H](CCCCN)NC(=O)[C@H](CC(C)C)NC(C)=O)C(=O)N[C@@H](CCC(=O)O)C(=O)N[C@@H](CC(N)=O)C(=O)N[C@@H](Cc3ccc(O)cc3)C(=O)N2)C(=O)N[C@@H](CCSC)C(=O)N[C@@H](CC(C)C)C(=O)N[C@@H](CCCNC(=N)N)C(=O)N1)C(=O)N[C@@H](C)C(=O)N[C@@H](CCC(N)=O)C(=O)N[C@@H](CC(C)C)C(N)=O` (Ac-LKKENYDLRSKAKMLRDHIAQL-NH2; lactam 3-7, 13-17) it was 0.33 frac.

The record behind these values is publication PMC3609778, “Truncated and Helix-Constrained Peptides with High Affinity and Specificity for the cFos Coiled-Coil of AP-1” (PLoS ONE, 2013).
